Drawing on patent US20120052569A1, this text covers peptide concentration giving complete competitive elution for one molecule.

The assay deals with monoclonal 2H5 antibody produced by rat-mouse hybridoma 2H5 (FERM BP-11245). Kind of assay: competitive elution of eTEV-GFPUV from 2H5 sepharose, peptide 0 to 1000 µg/mL, SDS gel.

In turn, RENLYFQGKDG [eTEV peptide (free peptide used as competitive eluent)] displayed a peptide concentration giving complete competitive elution of 30 µg/mL.
